The values that follow come from PMC8622166 (International Journal of Molecular Sciences, 2021).

This assay has as its target RAC3 (human, UniProt P60763 1-192). Put plainly: stopped-flow fluorimetry; association (kobs) at one concentration: 2 µM GDI mixed with 0.2 µM mdGDP-bound RHO GTPase; 25 °C, 30 mM Tris/HCl pH 7.5, 10 mM K2HPO4/KH2PO4 pH 7.5, 5 mM MgCl2, 3 mM DTT. The following applies: both partners purified.

B1: GDI3ΔN20 (domain or fragment, human, UniProt Q99819 21-225, looked up)
chain: LCARVLLADKEGGPPAVDEVLDEAVPEYRAPGRKSLLEIRQLDPDDRSLAKYKRVLLGPLPPAVDPSLPNVQVTRLTLLSEQAPGPVVMDLTGDLAVLKDQVFVLKEGVDYRVKISFKVHREIVSGLKCLHHTYRRGLRVDKTVYMVGSYGPSAQEYEFVTPVEEAPRGALVRGPYLVVSLFTDDDRTHHLSWEWGLCICQDWKD
Take B1: the binding result was “binds”.
